The source of these data is article PMC10807135 (ACS chemical biology, 2023).

Like-named read-outs stand apart in the source and are kept apart here.

The target in one test is T1, PltF Q438R D263K A230R (Pseudomonas fluorescens, UniProt Q4KCY5 1-498, Q438R | D263K | A230R).
T1 sequence: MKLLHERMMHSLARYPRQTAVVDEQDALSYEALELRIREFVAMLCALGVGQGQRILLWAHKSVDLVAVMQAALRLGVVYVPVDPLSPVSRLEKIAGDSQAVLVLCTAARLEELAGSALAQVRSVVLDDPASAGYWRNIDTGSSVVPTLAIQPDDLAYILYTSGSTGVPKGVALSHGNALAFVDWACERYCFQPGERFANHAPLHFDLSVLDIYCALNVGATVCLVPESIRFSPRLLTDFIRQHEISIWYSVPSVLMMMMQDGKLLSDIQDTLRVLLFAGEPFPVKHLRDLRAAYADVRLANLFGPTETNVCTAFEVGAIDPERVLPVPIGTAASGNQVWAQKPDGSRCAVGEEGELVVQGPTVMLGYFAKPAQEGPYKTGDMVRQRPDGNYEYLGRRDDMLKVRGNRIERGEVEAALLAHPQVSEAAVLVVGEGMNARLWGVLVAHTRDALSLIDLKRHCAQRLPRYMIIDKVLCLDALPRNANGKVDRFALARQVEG
Description: NMR titration.

For test [1], the target named is holo-AcpP (E. coli acyl carrier protein AcpP with phosphopantetheine) (Escherichia coli) (UniProt P0A6A8).
Test [2] has the same target. The source holds these as a separate data set.

B1: desulfo-AcpP (15N-labelled E. coli acyl carrier protein AcpP loaded with a desulfo-PPant mimic) (natural protein, Escherichia coli)
chain: STIEERVKKIIGEQLGVKQEEVTNNASFVEDLGADSLDTVELVMALEEEFDTEIPDEEAEKITTVQAAIDYINGHQA
modifications: desulfo-phosphopantetheine (desulfo-PPant mimic) loaded onto apo-AcpP; uniform 15N labelling
For the molecule B1, in the test with PltF Q438R D263K A230R, the binding result was “binds”.

B2: PltF Q438R (enzyme)
chain: MKLLHERMMHSLARYPRQTAVVDEQDALSYEALELRIREFVAMLCALGVGQGQRILLWAHKSVDLVAVMQAALRLGVVYVPVDPLSPVSRLEKIAGDSQAVLVLCTAARLEELAGSALAQVRSVVLDDPASAGYWRNIDTGSSVVPTLAIQPDDLAYILYTSGSTGVPKGVALSHGNALAFVDWACERYCFQPGERFANHAPLHFDLSVLDIYCALNVGATVCLVPESIAFSPRLLTDFIRQHEISIWYSVPSVLMMMMQDGDLLSDIQDTLRVLLFAGEPFPVKHLRDLRAAYADVRLANLFGPTETNVCTAFEVGAIDPERVLPVPIGTAASGNQVWAQKPDGSRCAVGEEGELVVQGPTVMLGYFAKPAQEGPYKTGDMVRQRPDGNYEYLGRRDDMLKVRGNRIERGEVEAALLAHPQVSEAAVLVVGEGMNARLWGVLVAHTRDALSLIDLKRHCAQRLPRYMIIDKVLCLDALPRNANGKVDRFALARQVEG
On to B2, for which the turnover rate of AcpP prolylation (time course, HPLC) in test [1] was found to be 0.264 AcpP h^-1.

B3: PltF Q438R K472R D263N (enzyme)
chain: MKLLHERMMHSLARYPRQTAVVDEQDALSYEALELRIREFVAMLCALGVGQGQRILLWAHKSVDLVAVMQAALRLGVVYVPVDPLSPVSRLEKIAGDSQAVLVLCTAARLEELAGSALAQVRSVVLDDPASAGYWRNIDTGSSVVPTLAIQPDDLAYILYTSGSTGVPKGVALSHGNALAFVDWACERYCFQPGERFANHAPLHFDLSVLDIYCALNVGATVCLVPESIAFSPRLLTDFIRQHEISIWYSVPSVLMMMMQDGNLLSDIQDTLRVLLFAGEPFPVKHLRDLRAAYADVRLANLFGPTETNVCTAFEVGAIDPERVLPVPIGTAASGNQVWAQKPDGSRCAVGEEGELVVQGPTVMLGYFAKPAQEGPYKTGDMVRQRPDGNYEYLGRRDDMLKVRGNRIERGEVEAALLAHPQVSEAAVLVVGEGMNARLWGVLVAHTRDALSLIDLKRHCAQRLPRYMIIDRVLCLDALPRNANGKVDRFALARQVEG
The molecule B3 displayed a turnover rate of AcpP prolylation (time course, HPLC) in test [2] of 1.98 AcpP h^-1.
